In patent US20020137891A1, “Protein scaffold and its use to multimerise monomeric polypeptides” (priority 1999, published 2002):
Read-outs that look alike come from different tables or passages of the source.

B1: sht-GroEL (193-335): shortest minichaperone, short histidine tail GroEL residues 193-335 (protein, UniProt P0A6F5 193-335, looked up, fragment)
chain: MQFDRGYLSPYFINKPETGAVELESPFILLADKKISNIREMLPVLEAVAKAGKPLLIIAEDVEGEALATLVVNTMRGIVKVAAVKAPGFGDRRKAMLQDIATLTGGTVISEEIGMELEKATLEDLGQAKRVVINKDTTTIIDG
modifications: short histidine tail
B2: sht-GroEL (191-376): histidine-tagged (short histidine tail; sht) minichaperone GroEL(191-376) (protein, UniProt P0A6F5 191-376, looked up, fragment)
chain: EGMQFDRGYLSPYFINKPETGAVELESPFILLADKKISNIREMLPVLEAVAKAGKPLLIIAEDVEGEALATLVVNTMRGIVKVAAVKAPGFGDRRKAMLQDIATLTGGTVISEEIGMELEKATLEDLGQAKRVVINKDTTTIIDGVGEEAAIQGRVAQIRQQIEEATSDYDREKLQERVAKLAGGV
modifications: short histidine tail
B3: Gp31 (1-111): wild-type bacteriophage T4 Gp31 (gene product), cpn10 family co-chaperonin (protein, UniProt P17313 1-111, looked up)
Capsid assembly protein Gp31: MSEVQQLPIRAVGEYVILVSEPAQAGDEEVTESGLIIGKRVQGEVPELCVVHSVGPDVPEGFCEVGDLTSLPVGQIRNVPHPFVALGLKQPKEIKQKFVTCHYKAIPCLYK
B4: GroES (1-97): E. coli co-chaperone, seven membered ring of 10 kD subunits (protein, UniProt P0A6F9 1-97, looked up)
Co-chaperonin GroES: MNIRPLHDRVIVKRKEVETKSAGGIVLTGSAAAKSTRGEVLAVGNGRILENGEVKPLDVKVGDIVIFNDGYGVKSEKIDNEEVLIMSESDILAIVEA
B5: sht-GroEL (191-345): short histidine tail minichaperone, GroEL residues 191-345 (protein, UniProt P0A6F5 191-345, looked up, fragment)
chain: EGMQFDRGYLSPYFINKPETGAVELESPFILLADKKISNIREMLPVLEAVAKAGKPLLIIAEDVEGEALATLVVNTMRGIVKVAAVKAPGFGDRRKAMLQDIATLTGGTVISEEIGMELEKATLEDLGQAKRVVINKDTTTIIDGVGEEAAIQGR
modifications: short histidine tail
B6: GroEL(191-345): GroEL(191-345) minichaperone monomer (protein, UniProt P0A6F5 191-345, looked up, fragment)
chain: B5 chain
modifications: apical domain
notes: GroEL(191-345) minichaperone monomer

Tests used:
[1] = tested on: COS-7, PC12, and SH-SY5Y cells; conditions: cited from earlier work
E. coli SV2 groEL44 = assay: In vivo complementation of thermosensitive groEL mutant at 43° C., strain SV2; assay type: cell-based; conditions: for Relative colony forming ability, SV2 groEL44: pJC plasmid, relative to growth at 30° C.
Procedure: (§1) In vivo complementation experiments. Complementation experiments were performed by transforming electro-competent SV2 or SV6 cells with the pJC series of expression vectors and plating an aliquot of the transformation reactions directly at 43° C. The percentage of viable cells relative to the growth at 30° C. was determined. A representative number of clones which grew at 43° C. were incubated in absence of any selective markers at permissive temperature. After prolonged growth the loss of the pJC plasmids and the ts phenotype were verified. Each experiment was performed in duplicate. Plasmids carrying no groE genes or encoding the GroE proteins were used as negative or positive controls, respectively.

E. coli SV6 groEL673 = assay: In vivo complementation of thermosensitive groEL mutant at 43° C., strain SV6; assay type: cell-based; conditions: for Relative colony forming ability, SV6 groEL673: pJC plasmid, relative to growth at 30° C.
Procedure: as §1

[2] = tested on: AI90 (ΔgroEL::kan^R) [pBADEL] E. coli strain; assay: Plating ability of transformed AI90 (ΔgroEL::kan^R) [pBAD-EL] at 37° C. on depletion of GroEL; assay type: cell-based; parameters: key: +++: growth identical to that in presence of 0.2% L(+)arabinose (100%), in terms of both number and size; ++: about 50% of the colonies relative to that in presence of 0.2% L(+)arabinose; +: about 30% of the colonies; +/−: ≦5% of the colonies and size reduced relative to that in presence of 0.2% L(+)arabinose; −: no visible colonies
Procedure: AI90 (ΔgroEL::kan^R) [pBAD-EL] cells were transformed with the pJC vector series. Transformants were selected at 37° C. on LB supplemented with 50 μg.ml^−1 of kanamycin, 120 μg.mL^−1 of ampicillin, 25 μg.mL^1 of chloramphenicol and 0.2% L(+)arabinose. Depletion of GroEL protein was analysed at 37° C. by plating the same quantity of AI90 [pBAD-EL+pJC vectors] cells on LB plates containing 1% D(+)glucose or various amount of arabinose.
Each experiment was performed in triplicate. Plasmids carrying no groE genes or encoding the GroE proteins were used as negative or positive controls, respectively.

bacteriophage λ (b2cI) = assay: Growth (plaque formation) of bacteriophage λ at 30° C. in transformed wild-type and groEL mutant strains; assay type: cell-based, E. coli; parameters: key to Growth of bacteriophage λ, SV1 (groEL^+) / Growth of bacteriophage λ, SV2 groEL44: +++: normal plaque-forming ability relative to wild-type groEL^+ strain, in terms of both number and size; ++: 5-fold fewer plaques relative to wild-type groEL^+ strain, or both; 10-fold fewer plaques, or plaque size reduced relative to wild-type groEL^+ strain, or both; +/−: 10^2-fold fewer plaques and plaque size reduced relative to wild-type groEL^+ strain; no visible plaques (<10^−4); conditions: for Growth of bacteriophage λ, SV1 (groEL^+) / Growth of bacteriophage λ, SV2 groEL44 / Growth of bacteriophage λ, SV3 GroEL59 / Growth of bacteriophage λ, SV6 groEL673: pJC plasmid
Description: (§2) Bacterial and bacteriophage strains. The E. coli strains used in this study were: C41(DE3), a mutant of BL21(DE3) capable of expressing toxic genes (Miroux, B. & Walker, J. E. (1996) J. Mol. Biol. 260, 289-298); SV2 (B178groEL44), SV3 (B178groEL59) and SV6 (B178groEL673): isogenic strains carrying temperature-sensitive alleles of groEL; SV1(=B178) (Georgopoulos, C., Hendrix, R. W., Casjens, S. R. & Kaiser, A. D. (1973) J. Mol. Biol. 76, 45-60), AI90 (ΔgroEL::kan^R) [pBAD-EL] (Ivic, A., Olden, D., Wallington, E. J. & Lund, P. A. (1997) Gene 194, 1-8), and TG1 (Gibson, T. J. (1984) Ph.D. thesis, University of Cambridge, U.K). Bacteriophage λb2cI (Zeilstra-Ryalls, J., Fayet, O., Baird, L. & Georgopoulos, C. (1993) J. Bacteriol. 175, 1134-1143) was used according to standard methods (Arber, W., Enquist, L., Hohn, B., Murray, N. E. & Murray, K. (1983) in Lambda II., ed. R. W. Hendrix, J. W. r., F. W. Stahl and R. A. Weisberg (Cold Spring Harbor Laboratory, Cold Spring Harbor, N.Y.), pp. 433-466); plaque formation was assayed at 30° C. T4D0, a derivative of bacteriophage T4 (Zeilstra-Ryalls, J., Fayet, O., Baird, L. & Georgopoulos, C. (1993) J. Bacteriol. 175, 1134-1143), was used according to standard methods (Karam, J. D. (1994) Molecular biology of bacteriophage T4. (American Society for Microbiology, Washington, D.C.)); plaque formation was assayed at 37° C.
(§3) Bacteriophage λ requires the chaperonins GroES and GroEL for protein folding during morphogenesis; bacteriophage T4 requires GroEL and Gp31, the latter being encoded by the bacteriophage genome (Zeilstra-Ryalls, J., Fayet, O. & Georgopoulos, C. (1991) Annu. Rev. Microbiol. 45, 301-325). Nine groE alleles which fail to support λ growth have been sequenced (Zeilstra-Ryalls, J., Fayet, O., Baird, L. & Georgopoulos, C. (1993) J. Bacteriol. 175, 1134-1143). We examined the ability of MC7, over-expressed from the constitutive tet promoter on a high-copy number vector (see FIG. 2), to complement three mutant groEL alleles for plaque formation by λ (b2cI) at 30° C. (Table 3) and T4 at 37° C. (Table 4).

bacteriophage T4 (T4D0) [3] = assay: Growth (plaque formation) of bacteriophage T4 at 37° C. in transformed wild-type and groEL mutant strains; assay type: cell-based, E. coli; parameters: key: +++: normal plaque-forming ability relative to wild-type groEL^+ strain, in terms of both number and size; ++: 5-fold fewer plaques relative to wild-type groEL^+ strain, or both; 10-fold fewer plaques, or plaque size reduced relative to wild-type groEL^+ strain, or both; +/−: 10^2-fold fewer plaques and plaque size reduced relative to wild-type groEL^+ strain; no visible plaques (<10^−4); conditions: pJC plasmid
Description: as §2, §3

bacteriophage T4 (T4D0) [4] = assay: as above; assay type: cell-based, E. coli; conditions: text prints 30° C. (Table 3)
[5] = tested on: mutant Huntingdon exon 1-expressing PC12 and SH-SY5Y cells; conditions: overexpression in PC12 and SH-SY5Y cells; D. Rubinsztein et al.; cited from earlier work

Molecule	Relative colony forming ability, SV2 groEL44 (E. coli SV2 groEL44)	Relative colony forming ability, SV6 groEL673 (E. coli SV6 groEL673)	Growth of bacteriophage λ, SV1 (groEL^+) (bacteriophage λ (b2cI))	Growth of bacteriophage λ, SV2 groEL44 (bacteriophage λ (b2cI))	Growth of bacteriophage λ, SV3 GroEL59 (bacteriophage λ (b2cI))	Growth of bacteriophage λ, SV6 groEL673 (bacteriophage λ (b2cI))	Growth of bacteriophage T4, SV1 (groEL^+) (bacteriophage T4 (T4D0) [3])	Growth of bacteriophage T4, SV2 groEL44 (bacteriophage T4 (T4D0) [3])	Growth of bacteriophage T4, SV3 groEL59 (bacteriophage T4 (T4D0) [3])	Growth of bacteriophage T4, SV6 groEL673 (bacteriophage T4 (T4D0) [3])	other results
CC(=O)N[C@@H](CSC(=O)[C@]1([C@@H](O)C(C)C)NC(=O)[C@H](C)[C@@H]1O)C(=O)O [lactacystin]											proportion of cells with inclusions of mutant Huntington exon 1 ([1]; treatment of transfected cells): increased
HDJ-2/HSDJ: a human HSP40 homologue											inclusion formation ([1]; overexpression in COS-7 cells): increased inclusion formation; inclusion formation ([1]; overexpression in PC12 and SH-SY5Y cells): did not modify inclusion formation
B1	0.05-0.09	0.03-0.05									Complementation of the groEL44 defect in SV2 (in words) (E. coli SV2 groEL44): complements; Complementation of the groEL673 defect in SV6 (in words) (E. coli SV6 groEL673): less well
B2	<10^−4	<10^−4	+++	− (no visible plaques (<10^−4))	− (no visible plaques (<10^−4))	− (no visible plaques (<10^−4))	+++	− (no visible plaques (<10^−4))	+++	− (no visible plaques (<10^−4))	Plating ability ([2]; 0.00 % L(+)arabinose): −; Plating ability ([2]; 0.01 % L(+)arabinose): +/− (≦5% of the colonies and size reduced relative to that in presence of 0.2% L(+)arabinose); Plating ability ([2]; 0.10 % L(+)arabinose): + (about 30% of the colonies); Plating ability ([2]; 0.15 % L(+)arabinose): ++ (about 50% of the colonies relative to that in presence of 0.2% L(+)arabinose)
B3	0.5 × 10^−3	<10^−4	+++	− (no visible plaques (<10^−4))	− (no visible plaques (<10^−4))	− (no visible plaques (<10^−4))	+++	+++	+++	+++	Effect of over-expression on bacteriophage T4 growth in groEL strains (in words) (bacteriophage T4 (T4D0) [4]): allows T4 growth in all strains
B4	5 × 10^−3	<10^−4	+++	+++	− (no visible plaques (<10^−4))	− (no visible plaques (<10^−4))	+++	+++	+++	− (no visible plaques (<10^−4))	Complementation of groEL mutant strains for bacteriophage λ growth (in words) (bacteriophage λ (b2cI)): allele-specific complementation; Effect of over-expression on plaque formation by bacteriophage λ in SV1 (groE^+) (in words) (bacteriophage λ (b2cI)): had no effect; Effect of over-expression on bacteriophage T4 growth in groEL strains (in words) (bacteriophage T4 (T4D0) [4]): allele-specific complementation
B5	0.01-0.02	0.07-0.09									Complementation of the groEL673 defect in SV6 (in words) (E. coli SV6 groEL673): complemented
B6											cell death [5]: reduced cell death; proportion of cells with inclusions [5]: reduced slightly but significantly
